From a protein production outcome set (Wang et al. 2014)

Assay: label from the status in PepcDB records

| Sequence | protein production |
| --- | --- |
| MVNFDEEVFRAYYEHKIKSFIKEELSNNLIKGNIFEFDIEKFLMHFPDACEVNDLIIERPKEIEEIILDIFKEAYVELFGEDKELEKIQIAFKNPKGCEKLIEEISAEDINKLVKFEGNILQAGKVNALLKKAVYYCNKRIKDENGGFLCKYTYTPCDGRVEIEIDDYFSEGEFIKDMLSPREVKKILENKKVWDKLVEKGKIPRCVDLKENDEVFKENLKEIKFILDEYDSIYVNIQEMEIQQPIDLMKNPEEPARSIRVFLENTPGIYAGRVNVIGRVMKREYRHNIPIYKIYIKSNYIKISESYNKIEVKDILRNEELIETLNELGRKKNIIDILSNYLISQIKGYELVKKAIFLQQIKGAFKFLPDGTPLRRDSHILLITDPGIGKSTMLRRIARLFPQNAYASVTTATGGGLTAIVTREATEIGDGWVVKPGVFVRANEGTACIDELTVDKNVMKYILEAMESQTIHVNKGGINVKLPARCAVLAACNPKRGRFDRNLTVIEQIDIPAPLLSRFDLIFPLMDKPNRKSDEEIAEHILNTHIETATKDYKILGAIDIDGITVDEKLLKYYIIYARSCAYIEENQDLYLGEFDETKLIMPYLTDKAKKMIKKYYLEMRKLGEGDNPIPITARQLEAIIRIAEMHAKARLSDKVEDVDAEVAISIIDDCLKQVAYDPETGTLDLDKIAGTPKSRRDKMDAVLNIIREIVSLRDDGLAPEEEIYEKAMAIGLSEKDVNDALEYLKKAGDIYNPRYGFWGLL | failed |
| MSRNPEVLWAQRSDKVYLTVALPDAKDISVKCEPQGLFSFSALGAQGERFEFSLELYGKIMTEYRKNVGLRNIIFSIQKEERSWWTRLLKSEEKPAPYIKVDWNKWCDEDEEVNSETASDDESAFVNQDSESSDDDGLLYLPDLEKARNK | not failed |
| MTLTALFAAFCGLYLLIGGAWLVVLGGSWYYPIAGLVMLGVTVMLFRGKRAALWLYAALLLATMIWGVWEVGFDFWALTPRSDILVFFGIWLILPFVWRRLPVPSAGAVGALVVALLISGGMLTWAGFNDPQEVNGTLSADATPAAPISTVADGDWPAYGRNQEGQRFSPLKQINADNVKNLKEAWVFRTGDLKQPNDPGEITNEVTPIKVGDTLFLCTAHQRLFALDAATGKEKWHFDPQLNADPSFQHVTCRGVSYHEAKADNAPADVVADCPRRIILPVNDGRLFAVNADNGKLCETFANKGILNLQTNMPVTTPGMYEPTSPPIITDKTIVIAGAVTDNFSTREPSGVIRGFDVNTGKLLWAFDPGAKDPNAIPSDEHHFTLNSPNSWAPAAYDAKLDLVYLPMGVTTPDIWGGNRTPEQERYASSIVALNATTGKLAWSYQTVHHDLWDMDMPSQPTLADIEVNGKTVPVIYAPAKTGNIFVLDRRNGELVVPAPEKPVPQGAAKGDYVTKTQPFSDLSFRPKKDLTGADMWGATMFDQLVCRVIFHQLRYEGIFTPPSEQGTLVFPGNLGMFEWGGISVDPNRQVAIANPMALPFVSKLIPRGPGNPMEPPKDAKGSGTESGVQPQYGVPYGVTLNPFLSPFGLPCKQPAWGYISALDLKTNEVVWKKRIGTPQDSLPFPMPVKLPFTMGMPMLGGPISTAGNVLFIGATADNYLRAYNMSNGEKLWEARLPAGGQATPMTYEVNGKQYVVISAGGHGSFGTKMGDYIVAYALPDDAK | failed |
| MITSTNKEAYPNTLIVILGHDEGRSSFEEKEDVTRVTNDKGETIGFNFFNVDKLIDFDKLPNGPVKLSDDELEALNKKLAEVGFDDKLEYGKPTLVYGYVKTCEKHPDSDHLHVTTIEVGDGEEHQIVCGAPNIAQGQKVVVALPGTLMPNGAQIWPGKLRGVDSYGMICSARELGLPHAPQKRGIMVVPDSFEVGAEFEPTKCDELIASGEITLLEHHHHHH | not failed |
| MNQTSSHSSLFSSSLPPVPDRPLSPSGRFNRLSYLAWYGFINLIGLMCLFGTGLIMGIFSLSQVTWDDQLLNALSGSFGFIMFGISILFFYFHVVLMIRRLHDTNRSGWWCLLFFVPVIQFILILYLLFIPGSKASNDYGIPRPSPVWEKILGWMIVIVLLLSLLMLGRLVSFMLGTGHLDFPQELIPKNTGYF | failed |
| PQKIFTPSAEIVKYTKIIAMEKLYAVFTDYEHDKVSRDEAVNKIRLDTEEHLKEKFPEVDQFEIIESFNIVAKEVFRSIILNEYKRCDGRD | not failed |
| MSLFPGDIEELARRIITDFTPLGLMVSTAESCTGGLIAGALTEIAGSSAVVDRGFVTYTNDAKRDMLGVGTETLTTFGAVSRQTALQMAHGALYRSRANFAVAVTGIAGPGGGSAEKPVGLVHLATKARNGNVLHHEMRYGDIGRTEIRLATVRTALEMLIALNQAGSV | not failed |
| MNFIQSNLNNLLAIAWFALCWGGYTRYAIWKGRDTACLASVLHLYREDWMRRMLLRDNRIADASVIGNLERNASFFASSTLIILAGILTVLGASDRALSLLADLPLVQQTSQGMSEIKLLCLAMVFVYAFFTFSWCMRQYNFAAVLVGSAPMIGERLVNELERKAFASRAARVLSLAANQFNLGLRSYYFGMAMLSWFISPWLFMAMSVGVVLILYRREFHSDVLDVMVFTPTESVLSEPAKESSVVSN | failed |
| MRKTKTEALKTKEHLMLAALETFYRKGIARTSLNEIAQAAGVTRGALYWHFKNKEDLFDALFQRICDDIENCIAQDAEDAEGGSWAVFRHTLLHFFERLQSNDIYYKFHNILFLKCEHTEQNAAVIAIARKHQAIWREKITAVLTEAVENQDLADDLDKETAVIFIKSTLDGLIWRWFSSCERFDLGKTAPRIIGIMMDNLENHPDLRRK | not failed |
| MKIATYNVRVDTEYDQDWQWSFRKEAVCQLINFHDWSLCCIQEVRPNQVRDLKAYTTFTCLSAEREGDGQGEGLAILYNEQKVQAIDTGYFWLSETPQQPSIHPEAGCPRIALWGLFKETTQNTPFLVINVHLDHISAHARLAGMTVILEELHDKIAQYPTLLMGDFNAESGEEVHQLVQKKFQDSKNLATHYGPRGTFQNFTYTKPWAELEEIDYIYVKGWQVQQTASLTDSIDGRFPSDHFPLEAEVCIEE | failed |
| MKKKKAHAAGAGPKLSVTNPPRTFFEDTLALFNSRRFDLLDQKINEAVNKWPNHAVVWKAIGVIMLMEGRFKEAIEPLTTAANLAQGDAQLHHNLGVAYLRLEQYEKAVPWLQRATSLKPDYAQAFANLGIAQAEIGLLQAAESNYRTALKINKDFPEALNNLGNVLNDQKRYGEAEECFRRALVLKPDFAEALNNLGTSLKGLNRLEEAETTYRKSLSLMPDYTRAHIGLGHTLFKLRQPDKAAASFRRAIELSPYELEAHDGLSMTLGDTVPLWHLPMMNDKPRNDAYFNALQAAVTPETRVLEIGTGSGLLSMMSARLGARHVTTCEVVTAIAETAASIVKDNGFADQVTVIPKLSTTLEVGVDLEERADLLVSEILSSEFLGEGVLSSIEDAKRRLLKPGARIIPARGSVRIALFGGRDIEMNVRVDEVYGFDLSRFNDIVPPKQYVGRNDLNIELLSDGIGAIHFDFMGTDHFPTSRSYGIDVPITRAGRCCGVIQWIRLEMDDTFVFENHPAERNVASGWQHCVYLFKTPVDVQPGQVAQIIASHDIRTCWFFLKKIVTP | failed |
| AHHHHHHGSVVKRTMTKKFLEEAFAGESMAHMRYLIFAEKAEQEGFPNIAKLFRAIAYAEFVHAKNHFIALGKLGKTPENLQMGIEGETFEVEEMYPVYNKAAEFQGEKEAVRTTHYALEAEKIHAELYRKAKEKAEKGEDIEIKKVYICPICGYTAVDEAPEYCPVCGAPKEKFVVFE | not failed |
| MKEIVERVKTKTKIPVYERSVENVLSAVLASDDIWRIVDLSEEPLPLVVAILESLNELGYVTFEDGVKLTEKGEELVAEYGIGKRYDFTCPHCQGKTVDLQAFADLLEQFREIVKDRPEPLHEFDQAYVTPETTVARVILMHTRGDLENKDIFVLGDDDLTSIALMLSGLPKRIAVLDIDERLTKFIEKAANEIGYEDIEIFTFDLRKPLPDYALHKFDTFITDPPETLEAIRAFVGRGIATLKGPRCAGYFGITRRESSLDKWREIQKLLLNEFNVVITDIIRNFNEYVNWGYAEETRAWKLIPIKKLPEYNWYKSYMFRIETLEGSRGYEDEIPEEDIYNDEESSTT | not failed |
| LTAIEARVIGCLIEKEVTTPDQYPLSLNALTNASNQKSNREPVMALSESDVLDAVDALIERRLVSDESAFNSRVSKYQHRFCNTEFGDLKLSEQEKGIICCMLLRGAQTPGEIRTRTNRLATFHDVKEVEAVLEHLASEEKGPLVVKLPREAGKRESRYMHLFCGEVDVSAMAAAVPAT | failed |
| MPVDAKTKYKAKKIKIVFFDIDDTLRVKKTGYIPESIKAVFKGLKEKGILTGIATGRGYYGVVEEILDLEPDYFVTINGTYVINRKGEEIYNQPLAREVTEAFVAWCKEIGIAWGFAGKDKPVVSERSELIDDAIVPIYGICDVEPDFHLTNDVYQMWTFAENNGDLKLPEELAAHVRLVPWHEHSSDVVATGISKASGVGHVLEHENLTPVNAMMFGDGPNDKEIFDYVGLKIAMGNATPELKAKADYVTGTVEEDGIFNALEELGLVEKELHFPQLDLDTVEGPVATIKTNHGDLVIKLFPDHAPLAVTNFVNLAKSGYYDGVIFHRIIKDFMIQGGDPTGTGMGGESSFGGSFQDEFSEELYNLRGALSMANAGPDTNGSQFFIVQAPEIPYAKKELERGGWPAPIAEAYAENGGTPHLDRRHTVFGHLVDEASYKVLDEIANVEVGTQDKPLEEVVIETIEVTDLEHHHHHH | not failed |
| IRTHLNLPSDKKVIMYAPTWRDDEFVSKGKYLFELKIDLDNLYKELGDDYVILLRMHYLISNALDLSGYENFAIDVSNYNDVSELFLISDCLITDYSSVMFDYGILKRPQFFFAYDIDKYDKGLRGFYMNYMEDLPGPIYTEPYGLAKELKNLDKVQQQYQEKIDAFYDRFCSVDNGKASQYIGDLIHKDIKEQ | failed |
| MGLNSKAEVAKSRKNAAEAEQKDRQTREKEEQYWREAEGPKSKAVKKREEEAEKKAETAAKKLEAKRLAEQEEKELEKALKKPDKKANRVTVPVPKVTEAELIRRREEDQVALAKKAEDSKKKQTRMAGEDEYEKMVLVTNTNRDDSLIEAHTVDEALARITVSDNLPVDRHPEKRLKASFKAYEEVELPRLKSEKPGLTHTQYKDLIWKMWKKSPDNPLNQAAAAAANE | failed |
| FFTPPHIVQLCVRLVDDFADGMTFHDPTVGSGGMLTEAAKYYREAQGGDPSKLTFTGQEINPDIAAIARMNLSLHTLNGEIERGDSLASPGFTDGDDLERFDRVLANFPFSADWAKDDLQDDQYGRFDWHTKLPRADRGDYAFIMHIAEQLKEPDCGDESGGKAAIVIPHGVLFRKHEQRYRQPMLENDLVEAIVGLPENLFQNNSIPSAILVLNTDKPADREGEVQFIHAADEAFYEELSNQNELTDDGLDHIVENFDDWTTE | failed |
| MALRTLSTFPSLPRRHTTTRREPNLTVIYRNPTTSIVCKSIANSEPPVSLSERDGFAAAAPTPGERFLENQRAHEAQKVVKKEIKKEKKKKKEEIIARKVVDTSVSCCYGCGAPLQTSDVDSPGFVDLVTYELKKKHHQLRTMICGRCQLLSHGHMITAVGGNGGYPGGKQFVSADELREKLSHLRHEKALIVKLVDIVDFNGSFLARVRDLVGANPIILVITKIDLLPKGTDMNCIGDWVVEVTMRKKLNVLSVHLTSSKSLDGVSGVASEIQKEKKGRDVYILGAANVGKSAFINALLKTMAERDPVAAAAQKYKPIQSAVPGTTLGPIQINAFVGGEKLYDTPGVHLHHRQAAVVHSDDLPALAPQNRLRGQSFDISTLPTQSSSSPKGESLNGYTFFWGGLVRIDILKALPETCFTFYGPKALEIHAVPTKTATAFYEAKLGVLLTPPSGKNQMQEWKGLQSHRLLQIEINDAKRPASDVAISGLGWISIEPIRKTRGTEPRDLNEAEHEIHICVSVPKPVEVFLRPTLPIGTSGTEWYQYRELTDKEEEVRPKWYF | failed |
